We go through 17 molecules from patent US20230272051A1 (CENTIVAX, published 2023).

As usually defined, the Kd is the concentration at which binding is half-saturated. A word on the koff: it is the first-order rate constant of dissociation. For orientation: kon means the second-order rate constant of association. A lower kon goes with slow association.

Experiment [1] has as its target T1, SARS-CoV-2 Receptor Binding Domain (RBD) protein (SARS-CoV-2, UniProt P0DTC2 319-541).
T1 construct: also called Sars-Cov-2 (COV2)
The experiment can be described thus: SPR (Carterra LSA).

Experiment [2] has as its target T1, SARS-CoV-2 Receptor Binding Domain …. In words: SPR (Carterra LSA); scFv captured by anti-V5, RBD as analyte.

B1: COVID19_P13_G12 (scFv, V domains shown)
VH: QVQLVQSGAEVKKPGSSVKVSCKASGYTFINYEIHWVRQAPGQGLEWMGGITPIFGTANYAQKFQGRVTITADESTSTAYMELSSLRSEDTAVYYCARDTVMGGMDVWGQGTLVTVSS
VL: SSYVLTQPPSVSVAPGKTARITCGGNNIGSKSVHWYQQKPGQAPVLVIYYDSDRPSGIPERFSGSNSGNTATLTISRVEAGDEADYYCQVWDSSSDYVFGGGTKLTVLA
Consider B1, for which, in experiment [1], the Kd is < 50 nM. In experiment [2], this molecule returned a Kd of 6.48 nM, a koff of 0.00088 s⁻¹ and a kon of 140000 M⁻¹ s⁻¹.

B2: COVID19_P14_D11 (scFv, V domains shown)
VH: QVQLVQSGAEVKKPGSSVKVSCKASGYTFNRFAMTWVRQAPGQGLEWMGTINPSGGSTIYTQRFQGRVTITADESTSTAYMELSSLRSEDTAVYYCGHDTVMGGMGEWGQGTLVTVSS
VL: SSYVLTQPPSVSVAPGKTARITCGGNNIGSKSVHWYQQKPGQAPVLVIYYDSDRPSGIPERFSGSNSGNTATLTISRVEAGDEADYYCQSTDSSSDYVFGGGTKLTVLA
In experiment [2], B2 registered a Kd of 48.2 nM, a koff of 0.00987 s⁻¹ and a kon of 205000 M⁻¹ s⁻¹.

B3: COVID19_P01_E12 (scFv, V domains shown)
VH: QVQLVQSGAEVKKPGSSVKVSCKASGYTFTTYDINWVRQAPGQGLEWMGWINPNSGGTNYAQKFQGRVTITADESTSTAYMELSSLRSEDTAVYYCARDTYWGGMDVWGQGTLVTVSS
VL: SSYVLTQPPSVSVAPGKTARITCGGNNIGSKSVHWYQQKPGQAPVLVIYDDSDRPSGIPERFSGSNSGNTATLTISRVEAGDEADYYCQVWDSSSFYVFGGGTKLTVLA
In experiment [2], B3 displayed a Kd of 32.5 nM, a koff of 0.0108 s⁻¹ and a kon of 331000 M⁻¹ s⁻¹.

B4: COVID19_P13_C07 (scFv, V domains shown)
VH: QVQLVQSGAEVKKPGSSVKVSCKASGGTFSRYDINWVRQAPGQGLEWMGIINPSGGSTTYAQKFQGRVTITADESTSTAYMELSSLRSEDTAVYYCAHDTVMGGMDVWGQGTLVTVSS
VL: SSYVLTQPPSVSVAPGKTARITCGGNNIGSKSVHWYQQKPGQAPVLVIYYDSDRPSGIPERFSGSNSGNTATLTISRVEAGDEADYYCQVWDSSSYYVFGGGTKLTVLA
In experiment [2], B4 gave a Kd of 41.5 nM, a koff of 0.0095 s⁻¹ and an on-rate constant (kon) of 230000 M⁻¹ s⁻¹.

B5: COVID19_P01_C09 (scFv, V domains shown)
VH: QVQLVQSGAEVKKPGSSVKVSCKASGYTFTSFDIHWVRQAPGQGLEWMGGIIPIFGTANYAQKFQGRVTITADESTSTAYMELSSLRSEDTAVYYCAYETVMGGMDVWGQGTLVTVSS
VL: SSYVLTQPPSVSVAPGKTARITCGGNNIGSKSVHWYQQKPGQAPVLVIYYDSDRPSGIPERFSGSNSGNTATLTISRVEAGDEADYYCQVWDSSSYYVFGGGTKLTVLA
Consider B5, for which, in experiment [1], the Kd was < 50 nM. Moreover, in experiment [2], the Kd was 18.2 nM, the koff worked out at 0.0097 s⁻¹ and the kon was 532000 M⁻¹ s⁻¹.

B6: COVID19_P13_D11 (scFv, V domains shown)
VH: QVQLVQSGAEVKKPGSSVKVSCKASGYSFNAFYIHWVRQAPGQGLEWMGGIIPIFGTANYAQKFQGRVTITADESTSTAYMELSSLRSEDTAVYYCALETVMGGMDVWGQGTLVTVSS
VL: SSYVLTQPPSVSVAPGKTARITCGGNNIGSKSVHWYQQKPGQAPVLVIYYDSDRPSGIPERFSGSNSGNTATLTISRVEAGDEADYYCQVWDGSSDYVFGGGTKLTVLA
As to B6, the equilibrium dissociation constant (Kd) in experiment [1] was < 50 nM. For the same molecule, in experiment [2], the affinity, expressed as Kd, was 35 nM; the koff came out at 0.011 s⁻¹; the kon was determined as 310000 M⁻¹ s⁻¹.

B7: COVID19_P01_B06 (scFv, V domains shown)
VH: QVQLVQSGAEVKKPGSSVKVSCKASGYTFSAYYMHWVRQAPGQGLEWMGGITPLFGTPSYAQKFQGRVTITADESTSTAYMELSSLRSEDTAVYYCALETVMGGVGVWGQGTLVTVSS
VL: SSYVLTQPPSVSVAPGKTARITCGGNNIGSKSVHWYQQKPGQAPVLVIYYDSDRPSGIPERFSGSNSGNTATLTISRVEAVDEADYYCQVWDSSSDYVFGGGTKLTVLA
For the molecule B7, in experiment [1], the Kd is < 50 nM. In experiment [2], this molecule registered a Kd of 28 nM, a koff of 0.0122 s⁻¹ and a kon of 437000 M⁻¹ s⁻¹.

B8: COVID19_P02_H04 (scFv, V domains shown)
VH: QVQLVQSGAEVKKPGSSVKVSCKASGYTFSSFHINWVRQAPGQGLEWMGGITPIFGIANYAQKFQGRVTITADESTSTAYMELSSLRSEDTAVYYCALETVMGGMDVWGQGTLVTVSS
VL: SSYVLTQPPSVSVAPGKTARITCGGNNIGSKSVHWYQQKPGQAPVLVIYYDSDRPSGIPERFSGSNSGNTATLTISRVEAGDEADYYCQSWDSSGDYVFGGGTKLTVLA
In experiment [2], B8 came in with a Kd of 31.9 nM, an off-rate (koff) of 0.00781 s⁻¹ and a kon of 245000 M⁻¹ s⁻¹.

B9: COVID19_P14_C12 (scFv, V domains shown)
VH: QVQLVQSGAEVKKPGSSVKVSCKASGYTFTTYDINWVRQAPGQGLEWMGIIDPIGGTTNYAQKFQGRVTITADESTSTAYMELSSLRSEDTAVYYCARDTVGFGMDVWGQGTLVTVSS
VL: SSYVLTQPPSVSVAPGKTARITCGGNNIGSKSVHWYQQKPGQAPVLVIYDDSDRPSGIPERFSGSNSGNTATLTISRVEAGDEADYYCQVWDSSSLYVFGGGTKLTVLA
Regarding B9, in experiment [2], binding was put at a Kd of 7.8 nM, the off-rate (koff) was determined as 0.000725 s⁻¹ and the kon was 93000 M⁻¹ s⁻¹.

B10: COVID19_P02_C07 (scFv, V domains shown)
VH: QVQLVQSGAEVKKPGSSVKVSCKASGYTFSSYYIHWVRQAPGQGLEWMGGIIPIFGEAEYAHKFQGRVTITADESTSTAYMELSSLRSEDTAVYYCAMETVMGGMDVWGQGTLVTVSS
VL: SSYVLTQPPSVSVAPGKTARITCGGNNIGSKSVHWYQQKPGQAPVLVIYYDSDRPSGIPERFSGSNSGNTATLTISRVEAGDEADYYCQVWDSSSDYVFGGGTKLTVLA
B10: in experiment [1], the Kd is < 50 nM. Moreover, in experiment [2], the Kd was 4.34 nM, the koff stood at 0.00279 s⁻¹ and the kon amounted to 642000 M⁻¹ s⁻¹.

B11: COVID19_P01_E06 (scFv, V domains shown)
VH: QVQLVQSGAEVKKPGSSVKVSCKASGCTFTRFTMHWVRQAPGQGLEWMGGITPIFGITNYAQKFQGRVTITADESTSTAYMELSSLRSEDTAVYYCAHDTVMGGMEEWGQGTLVTVSS
VL: SSYVLTQPPSVSVAPGKTARITCGGNNIGSKSVHWYQQKPGQAPVLVIYYDSDRPSGIPERFSGSNSGNTATLTISRVEAGDEADYYCQVWDSSNDYVFGGGTKLTVLA
In experiment [2], B11 registered a Kd of 48.7 nM, a koff of 0.0118 s⁻¹ and a kon of 242000 M⁻¹ s⁻¹.

B12: COVID19_P13_B12 (scFv, V domains shown)
VH: QVQLVQSGAEVKKPGSSVKVSCKASGYTFTDFHMHWVRQAPGQGLEWMGGIIPIFGTANYAQKFQGRVTITADESTSTAYMELSSLRSEDTAVYYCALETVMGGMDVWGQGTLVTVSS
VL: SSYVLTQPPSVSVAPGKTARITCGGNNIGSKSVHWYQQKPGQAPVLVIYYDSDRPSGIPERFSGSNSGNTATLTISRVEAGDEADYYCQVWDSSSDYVFGGGTKLTVLA
Take B12: the dissociation constant Kd in experiment [1] was < 50 nM. In experiment [2], this molecule yielded a Kd of 32.7 nM, a koff of 0.0049 s⁻¹ and a kon of 150000 M⁻¹ s⁻¹.

B13: COVID19_P13_D01 (scFv, V domains shown)
VH: QVQLVQSGAEVKKPGSSVKVSCKASGYTFSDFDINWVRQAPGQGLEWMGGIIPIFGTANYAQKFQGRVTITADESTSTAYMELSSLRSEDTAVYYCGMDTVMGGMTSWGQGTLVTVSS
VL: SSYVLTQPPSVSVAPGKTARITCGGNNIGSKSVHWYQQKPGQAPVLVIYYDSDRPSGIPERFSGSNSGNTATLTISRVEAGDEADYYCQVWDSSHDYVFGGGTKLTVLA
In the case of B13, the Kd in experiment [1] is < 50 nM. In experiment [2], the affinity, expressed as Kd, was 3.14 nM; the koff stood at 0.00035 s⁻¹; the kon was 110000 M⁻¹ s⁻¹.

B14: COVID19_P01_G05 (scFv, V domains shown)
VH: QVQLVQSGAEVKKPGSSVKVSCKASGYTFTDFYIHWVRQAPGQGLEWMGGIIPIFGTANYAQKFQGRVTITADESTSTAYMELSSLRSEDTAVYYCALETVMGGMDVWGQGTLVTVSS
VL: SSYVLTQPPSVSVAPGKTARITCGGNNIGSKSVHWYQQKPGQAPVLVIYYDSDRPSGIPERFSGSNSGNTATLTISRVEAGDEADYYCQVWDSSSHYVFGGGTKLTVLA
Consider B14, for which the Kd in experiment [1] is < 50 nM. In experiment [2], this molecule returned a Kd of 2.89 nM, a koff of 0.00123 s⁻¹ and a kon of 427000 M⁻¹ s⁻¹.

B15: COVID19_P01_H04 (scFv, V domains shown)
VH: QVQLVQSGAEVKKPGSSVKVSCKASGYPFSSYEINWVRQAPGQGLEWMGGITPIFGTANYAQKFQGRVTITADESTSTAYMELSSLRSEDTAVYYCADETVMGGMDVWGQGTLVTVSS
VL: SSYVLTQPPSVSVAPGKTARITCGGNNIGSKSVHWYQQKPGQAPVLVIYYDSDRPSGIPERFSGSNSGNTATLTISRVEAGDEADYYCQVWDSSNDYVFGGGTKLTVLA
As to B15, the equilibrium dissociation constant (Kd) in experiment [1] was < 50 nM. For the same molecule, in experiment [2], the affinity, expressed as Kd, was 0.95 nM; the koff worked out at 0.00056 s⁻¹; the kon was 590000 M⁻¹ s⁻¹.

B16: COVID19_P02_D10 (scFv, V domains shown)
VH: QVQLVQSGAEVKKPGSSVKVSCKASGYMFTEFYMHWVRQAPGQGLEWMGGIIPVSGTANYAQKFQGRVTITADESTSTAYMELSSLRSEDTAVYYCARETVMGGMDVWGQGTLVTVSS
VL: SSYVLTQPPSVSVAPGKTARITCGGNNIGSKSVHWYQQKPGQAPVLVIYYDSDRPSGIPERFSGSNSGNTATLTISRVEAGDEADYYCQVWDSSSDYVFGGGTKLTVLA
In the case of B16, the Kd in experiment [1] is < 50 nM. In experiment [2], this molecule had a dissociation constant (Kd) of 26.4 nM, a koff of 0.0029 s⁻¹ and a kon of 110000 M⁻¹ s⁻¹.

B17: COVID19_P13_A08 (scFv, V domains shown)
VH: QVQLVQSGAEVKKPGSSVKVSCKASGYTFINYDINWVRQAPGQGLEWMGGITPIFGTANYAQKFQGRVTITADESTSTAYMELSSLRSEDTAVYYCARDTVMGGMDVWGQGTLVTVSS
VL: SSYVLTQPPSVSVAPGKTARITCGGNNIGSKSVHWYQQKPGQAPVLVIYYDSDRPSGIPERFSGSNSGNTATLTISRVEAGDEADYYCQVWDSRSDYVFGGGTKLTVLA
For B17, the Kd in experiment [1] was < 50 nM. Moreover, in experiment [2], the Kd is 10 nM, the koff stood at 0.00046 s⁻¹ and the kon was determined as 46000 M⁻¹ s⁻¹.
